From patent publication US20220064314A1 (QLSF BIOTHERAPEUTICS, published 2022) come the findings set out here.

The chains are these.
T1: mouse 4-1BB on HEK293 cells (mouse, UniProt P20334 24-256)
T1 construct: whole, on cells; also called Mouse 4-1BB transfected HEK293 cells
T1 sequence (looked up): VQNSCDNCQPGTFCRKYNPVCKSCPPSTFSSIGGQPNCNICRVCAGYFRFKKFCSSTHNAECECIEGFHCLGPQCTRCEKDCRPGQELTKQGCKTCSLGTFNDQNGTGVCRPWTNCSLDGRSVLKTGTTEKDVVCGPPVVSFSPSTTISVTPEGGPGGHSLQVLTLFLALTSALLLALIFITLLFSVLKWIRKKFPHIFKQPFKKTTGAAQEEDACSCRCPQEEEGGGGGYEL

B1: G28.21 (antibody, V domains shown)
VH: EVQLQQSGAELVRPGASVKLSCTASGFNIKDYYIHWVNQRPEQGLEWIGRIDPEDGDIAYAPKFQDKATLTVDTSSNTAYLHIIGLTSEDTAVYYCTTGNYYAMDFWGQGTSVTVSS
VL: QIVLTQSPAIMSASLGERVTMTCTASSSVSSSYLHWYQQKPGSSPKLWIYSTSNLASGVPARFSGSGSGTSYSLTISSMEAEDAATYYCHQYHRSPPTFGSGTKLEIK
notes: also called anti-4-1BB mAb G28.21
B2: F1.1 (antibody, V domains shown)
VH: QVQLQQSGAELARPGASVKMSCKASGYTFTFYTMHWLKQRPGQGLEWIGYINPSSGYTNYNQKFTDKATLTADKSSSTAYMQLSSLTSEDSAVYYCARSDGSSSKWYFDVWGTGTTVTVSS
VL: QIVLSQSPTILSASPGEKVTMTCRASSSVSYIHWYQQKPGSSPKAWISATSNLASGVPARFSGSGSGTSYSLTISRVEAEDAATYYCQQWSSNPFTFGSGTKLEIK
notes: The flow method detects with anti-human IgG; also called anti-4-1BB mAb F1.1
B3: huF1.1.G2.2.4 (antibody, human IgG2, kappa, V domains shown)
VH: QVQLVQSGAEVKKPGASVKVSCKASGYTFTFYTMHWLRQAPGQGLEWIGYINPSSGYTNYNQKFTDRATLTADTSTSTAYMELSSLRSEDTAVYYCARSDGSSSKWYFDVWGQGTTVTVSS
VL: EIVLTQSPDFQSATPKEKVTITCRASSSVSYIHWYQQKPGSSPKAWISATSNLASGVPSRFSGSGSGTSYTLTINRVEAEDAATYYCQQWSSNPFTFGQGTKLEIKR
notes: also called huF1.1.2.4
B4: huF1.1.G2.4.4 (antibody, human IgG2, kappa, V domains shown)
VH: B3 VH with V20M, R38K, T74K
VL: B3 VL
notes: also called huF1.1.4.4
B5: cAB 137QL.G28.21.G2 (antibody, human IgG2, V domains shown)
VH: B1 VH
VL: B1 VL
notes: Chimeric antibody; also called Chimeric G28.21; cAb G28.21.G2
B6: cAb 137QL.F1.1.G2 (antibody, human IgG2, V domains shown)
VH: B2 VH
VL: B2 VL
notes: Chimeric antibody; also called Chimeric F1.1; cAb F1.1.G2
B7: huG28.21.G2.1.4 (antibody, human IgG2, kappa, V domains shown)
VH: EVQLVQSGAEVKKPGATVKISCKASGFNIKDYYIHWVNQAPGKGLEWIGRIDPEDGDIAYAPKFQDRVTLTVDTSTDTAYLELSSLRSEDTAVYYCTTGNYYAMDFWGQGTTVTVSS
VL: QIVLTQSPATLSASPGERVTLSCTASSSVSSSYLHWYQQKPGSSPKLWIYSTSNLASGVPARFSGSGPGTSYTLTISSMEPEDAATYYCHQYHRSPPTFGQGTKLEIKR
notes: also called huG28.21.1.4
B8: huG28.21.G2.4.4 (antibody, human IgG2, kappa, V domains shown)
VH: B7 VH with V5Q, I20L, A40R, K43Q, V68A, D77N
VL: B7 VL
notes: also called huG28.21.4.4

Changes are numbered by the printed parent chain.

The target in the first test is T2, human 4-1BB on cells (human, UniProt Q07011 24-255). The test is described as follows: cell-based or functional assay.
T2 sequence (Q07011 24-255): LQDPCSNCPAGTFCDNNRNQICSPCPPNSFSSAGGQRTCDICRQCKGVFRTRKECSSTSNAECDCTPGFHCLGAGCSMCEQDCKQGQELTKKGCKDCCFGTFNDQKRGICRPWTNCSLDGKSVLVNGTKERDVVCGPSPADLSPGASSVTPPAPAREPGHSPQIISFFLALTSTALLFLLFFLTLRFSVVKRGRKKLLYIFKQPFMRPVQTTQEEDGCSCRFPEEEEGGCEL
On to B1, for which the “NF-kB Stimulation (EC50)” value was found to be 0.018 µg/mL.
The same measure, in the same setting: next, B2: 0.026 µg/mL.

For a further test, the target named is T1, mouse 4-1BB on HEK293 cells. Kind of test: flow cytometry, mouse 4-1BB transfected HEK293 cells. On the procedure:
(§1) Human/Cyno/Mouse 4-1BB transfected HEK293 cells or PHA-P stimulated PBMCs were incubated with serial diluted anti-4-1BB antibodies in FACS buffer (DPBS+ 2% FBS+ 0.05% sodium azide) followed by AF647-labeled F(ab′)2 goat anti-human IgG and 7-AAD. In addition, PBMCs were incubated with FITC Mouse anti-human CD3. Stained 4-1BB expressing HEK293 samples were analyzed using FlowJo by gating on FSC/SSC, followed by live/dead cell gating, and human/Cynomolgous/Mouse 4-1BB+ cells (MFI Geo Mean denoted). Stained Lymphocyte samples were analyzed using FlowJo by gating on FSC/SSC, followed by live/dead cell gating, and CD3+ cells with 4-1BB positives. (Table 2 and Table 3)
In general terms: A flow cytometer gives signals particle by particle.
B1: the binding result is listed as “no binding”.
Same read-out and setting: next, B2: “no binding”.

The next test has as its target T2, human 4-1BB on cells. Kind of test: flow cytometry, activated (PHA-P stimulated) human T cells. On the procedure:
as §1
The term EC50 denotes the concentration giving half of the maximal effect. Turning to B1, a half-maximal response (EC50) required 0.08 µg/mL.
In turn, B2 gave an EC50 of 0.233 µg/mL.

The next test has as its target T2, human 4-1BB on cells. Kind of test: cell-based or functional assay. This is another data set of the same source.
Take B3: the “NF-KB reporter activation, curve fit Bottom” value was determined as 838 RLU and the “NF-KB reporter activation, curve fit Top” value turned out to be 7190 RLU.
For the molecule B4, the “NF-KB reporter activation, curve fit Bottom” value worked out at 666 RLU and the “NF-KB reporter activation, curve fit Top” value turned out to be 5940 RLU.
Turning to B5, the “NF-KB reporter activation, curve fit Bottom” value was found to be 879 RLU and the “NF-KB reporter activation, curve fit Top” value stood at 4590 RLU.
For B6, in that order: 894 RLU and 6730 RLU.
As to B7, the “NF-KB reporter activation, curve fit Bottom” value came to 625 RLU and the “NF-KB reporter activation, curve fit Top” value turned out to be 4170 RLU.
For B8, the “NF-KB reporter activation, curve fit Bottom” value was 592 RLU and the “NF-KB reporter activation, curve fit Top” value amounted to 3920 RLU.

A further test deals with T2, human 4-1BB on cells. Kind of test: flow cytometry, HEK293 cells over-expressing human 4-1BB. How it is done:
as §1
In the case of B1, the EC50 came out at 0.121 µg/mL.
On to B2, for which a half-maximal effect (EC50) was put at 0.341 µg/mL.

The next test concerns the target T3, 4-1BB (CD137), antigen of the Octet kinetics (UniProt Q07011 24-186, limits assumed).
T3 construct: also called TNFRSF9
Kind of test: Octet (BLI), mono-valent binding kinetics. Background: In BLI a coated tip is dipped into the sample, and binding shifts an interference pattern.
By Kd is commonly meant the free concentration of one partner at which half of the binding sites on the other are occupied at equilibrium, for simple one-to-one binding. Read a low Kd as higher affinity. One may read the koff as a measure of how fast the partners let go of each other. Read a low koff as a long-lived complex. As usually defined, the kon is a measure of how fast the partners come together. A lower kon goes with slower complex formation. For B3, the Kd stood at 40.6 nM, the Response came to 0.12, the “T1/2 Life” value is 2.1 min and the off-rate constant (koff) is 0.00559 s⁻¹. In addition, the kon came to 138000 M⁻¹ s⁻¹.
Taken in the same sequence, the figures for B4 were 40.4 nM, 0.137, 1.9 min, 0.00618 s⁻¹ and 153000 M⁻¹ s⁻¹.
Consider B5, for which binding was put at a Kd of 14 nM, the Response was found to be 0.204, the “T1/2 Life” value turned out to be 2.2 min and the koff amounted to 0.00523 s⁻¹. The same molecule showed a kon of 373000 M⁻¹ s⁻¹.
For B6, binding was characterised by a dissociation constant (Kd) of 41.9 nM, the Response was 0.138, the “T1/2 Life” value is 2 min and the koff came to 0.00578 s⁻¹. The same molecule displayed a kon of 138000 M⁻¹ s⁻¹.
Take B7: the Kd was 15.3 nM, the Response amounted to 0.181, the “T1/2 Life” value worked out at 1.8 min and the koff turned out to be 0.00652 s⁻¹. The kon came to 426000 M⁻¹ s⁻¹.
Taken in the same sequence, the figures for B8 were 10.4 nM, 0.175, 2.5 min, 0.00467 s⁻¹ and 449000 M⁻¹ s⁻¹.

The target of a further test is T4, cyno 4-1BB on HEK293 cells (cyno, UniProt A9YYE7 24-254).
T4 construct: whole, on cells; also called Cynomolgous 4-1BB; HEK293 cells over-expressing cyno 4-1BB
T4 sequence (A9YYE7 entry or part of it): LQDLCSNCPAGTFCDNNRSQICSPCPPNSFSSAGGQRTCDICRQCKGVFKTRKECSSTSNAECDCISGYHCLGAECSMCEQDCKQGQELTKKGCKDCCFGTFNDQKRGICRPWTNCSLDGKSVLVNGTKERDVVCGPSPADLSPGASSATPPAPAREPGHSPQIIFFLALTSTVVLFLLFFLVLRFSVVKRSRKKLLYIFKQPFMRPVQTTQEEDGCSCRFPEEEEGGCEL
Kind of test: flow cytometry, HEK293 cells over-expressing cyno 4-1BB. On the procedure: as §1
Molecule B1 had an EC50 of 0.162 µg/mL.
The same measure, in the same setting: then B2, with 0.392 µg/mL.
